What was measured:
[1] = target: T1, human beta klotho / human FGFR1c receptor complex on cells (human, UniProt Q86Z14 1-1044; P11362 22-822); assay: cell-based or functional assay
[2] = target: T2, human beta klotho expressed on cells (human, UniProt Q86Z14 1-1044); assay: FACS competition on HuKLB-overexpressing cells; row antibody unlabelled; competitor 5H23-Alexa647 (labelled, EC10); MFI of the label
T2 construct: also called HuKLB overexpressing cells; Human KLB
T2 sequence: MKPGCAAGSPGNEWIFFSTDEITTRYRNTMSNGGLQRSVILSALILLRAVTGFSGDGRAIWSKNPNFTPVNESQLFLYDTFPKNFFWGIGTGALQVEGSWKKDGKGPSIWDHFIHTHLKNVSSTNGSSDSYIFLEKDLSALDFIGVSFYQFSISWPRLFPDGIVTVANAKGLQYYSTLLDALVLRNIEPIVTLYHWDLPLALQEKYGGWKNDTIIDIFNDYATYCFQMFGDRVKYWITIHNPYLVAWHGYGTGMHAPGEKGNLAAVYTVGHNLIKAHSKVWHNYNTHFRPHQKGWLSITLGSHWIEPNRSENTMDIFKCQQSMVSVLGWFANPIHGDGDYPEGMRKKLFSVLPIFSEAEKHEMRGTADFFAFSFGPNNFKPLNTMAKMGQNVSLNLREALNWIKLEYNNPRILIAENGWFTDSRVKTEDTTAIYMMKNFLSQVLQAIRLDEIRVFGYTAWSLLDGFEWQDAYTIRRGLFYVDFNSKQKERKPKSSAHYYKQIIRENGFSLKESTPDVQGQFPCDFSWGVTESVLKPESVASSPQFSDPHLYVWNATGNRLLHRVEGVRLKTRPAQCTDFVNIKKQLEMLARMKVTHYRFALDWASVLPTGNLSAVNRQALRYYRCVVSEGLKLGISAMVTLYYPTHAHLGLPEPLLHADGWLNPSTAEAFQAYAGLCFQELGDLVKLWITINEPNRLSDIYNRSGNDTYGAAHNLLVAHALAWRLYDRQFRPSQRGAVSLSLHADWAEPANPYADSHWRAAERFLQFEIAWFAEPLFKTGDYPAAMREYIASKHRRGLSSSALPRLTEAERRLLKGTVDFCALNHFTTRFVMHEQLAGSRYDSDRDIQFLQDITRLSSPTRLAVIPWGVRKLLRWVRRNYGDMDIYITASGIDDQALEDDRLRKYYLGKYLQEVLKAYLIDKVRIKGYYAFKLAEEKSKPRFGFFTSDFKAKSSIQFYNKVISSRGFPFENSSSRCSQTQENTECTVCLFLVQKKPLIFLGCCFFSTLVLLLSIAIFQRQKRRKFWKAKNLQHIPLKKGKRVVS
Protocol: (§1) For example, for competition binding assays by FACS analysis, antibody standards were prepared that were conjugated to a fluorochrome using either A488 or A647 antibody labeling kit (Invitrogen) following manufacturer's instructions. A dose titration of the conjugated antibody standard was evaluated using HuKLB overexpressing cells. The plateau of the maximal signal of antibody binding is EC=100 and the background signal is EC=0. Competition by FACS against the fluorochrome labeled antibody was performed by pre-incubating HuKLB overexpressing cells with hybridoma supernatants for 15 minutes at room temperature. Without washing, an EC=10 concentration of A488 or A647 labelled antibody standard was added. EC=10 for an individual antibody was determined by 10% of signal using the maximum signal as (100%) and background signal as (0%). After 30 minutes at 4° C., cells are washed and analyzed by FACS. […] A partial competing antibody is one sample that show signal between labelled antibody alone and background. Antibodies that show complete competition against the same standard antibody are considered to be in the same bin.
(§2) Representative results are shown in Table 12 below reported as mean fluorescence intensity (MFI).

[3] = target: T2, human beta klotho expressed on cells; assay: FACS competition on HuKLB-overexpressing cells; row antibody unlabelled; competitor 3I13-Alexa488 (labelled, EC10); MFI of the label
Protocol: as §1, §2

[4] = target: T1, human beta klotho / human FGFR1c …; assay: cell-based or functional assay; remark: listed apart in the source
[5] = target: cynomolgus beta klotho / human FGFR1c receptor complex on cells (cynomolgus monkey (Macaca …)); assay: cell-based or functional assay
cynomolgus beta klotho / human FGFR1c receptor complex on cells (cynomolgus monkey (Macaca …)), sequence (chain, as listed by the source limits assumed, chain 1 of 2): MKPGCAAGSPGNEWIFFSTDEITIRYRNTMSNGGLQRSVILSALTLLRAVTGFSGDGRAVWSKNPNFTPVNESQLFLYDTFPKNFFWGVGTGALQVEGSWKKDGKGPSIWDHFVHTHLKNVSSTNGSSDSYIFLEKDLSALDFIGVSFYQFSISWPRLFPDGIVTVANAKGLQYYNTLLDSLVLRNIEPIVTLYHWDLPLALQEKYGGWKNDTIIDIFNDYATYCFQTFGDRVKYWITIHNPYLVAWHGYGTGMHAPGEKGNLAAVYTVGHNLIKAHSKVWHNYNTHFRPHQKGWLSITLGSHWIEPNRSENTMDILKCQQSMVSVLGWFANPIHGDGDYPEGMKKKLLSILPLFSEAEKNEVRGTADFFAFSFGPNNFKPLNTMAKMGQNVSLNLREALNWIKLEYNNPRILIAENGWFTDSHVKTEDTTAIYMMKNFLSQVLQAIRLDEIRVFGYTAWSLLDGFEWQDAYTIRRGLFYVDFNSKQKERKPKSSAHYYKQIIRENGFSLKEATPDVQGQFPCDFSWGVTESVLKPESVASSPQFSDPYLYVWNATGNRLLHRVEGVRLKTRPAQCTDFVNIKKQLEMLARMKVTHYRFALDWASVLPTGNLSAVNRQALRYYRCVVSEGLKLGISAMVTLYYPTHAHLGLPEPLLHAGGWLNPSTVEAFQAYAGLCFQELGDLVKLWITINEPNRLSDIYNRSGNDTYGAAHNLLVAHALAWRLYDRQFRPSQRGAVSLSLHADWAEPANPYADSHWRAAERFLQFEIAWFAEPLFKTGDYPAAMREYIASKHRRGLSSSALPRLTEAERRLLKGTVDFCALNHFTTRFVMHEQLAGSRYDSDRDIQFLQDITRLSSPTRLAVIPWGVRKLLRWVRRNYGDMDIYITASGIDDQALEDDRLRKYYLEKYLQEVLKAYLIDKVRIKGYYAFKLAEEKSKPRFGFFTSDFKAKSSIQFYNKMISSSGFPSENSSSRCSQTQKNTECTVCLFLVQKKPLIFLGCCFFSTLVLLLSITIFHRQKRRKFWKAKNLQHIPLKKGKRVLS
cynomolgus beta klotho / human FGFR1c receptor complex on cells (cynomolgus monkey (Macaca …)), sequence (chain, as listed by the source limits assumed, chain 2 of 2): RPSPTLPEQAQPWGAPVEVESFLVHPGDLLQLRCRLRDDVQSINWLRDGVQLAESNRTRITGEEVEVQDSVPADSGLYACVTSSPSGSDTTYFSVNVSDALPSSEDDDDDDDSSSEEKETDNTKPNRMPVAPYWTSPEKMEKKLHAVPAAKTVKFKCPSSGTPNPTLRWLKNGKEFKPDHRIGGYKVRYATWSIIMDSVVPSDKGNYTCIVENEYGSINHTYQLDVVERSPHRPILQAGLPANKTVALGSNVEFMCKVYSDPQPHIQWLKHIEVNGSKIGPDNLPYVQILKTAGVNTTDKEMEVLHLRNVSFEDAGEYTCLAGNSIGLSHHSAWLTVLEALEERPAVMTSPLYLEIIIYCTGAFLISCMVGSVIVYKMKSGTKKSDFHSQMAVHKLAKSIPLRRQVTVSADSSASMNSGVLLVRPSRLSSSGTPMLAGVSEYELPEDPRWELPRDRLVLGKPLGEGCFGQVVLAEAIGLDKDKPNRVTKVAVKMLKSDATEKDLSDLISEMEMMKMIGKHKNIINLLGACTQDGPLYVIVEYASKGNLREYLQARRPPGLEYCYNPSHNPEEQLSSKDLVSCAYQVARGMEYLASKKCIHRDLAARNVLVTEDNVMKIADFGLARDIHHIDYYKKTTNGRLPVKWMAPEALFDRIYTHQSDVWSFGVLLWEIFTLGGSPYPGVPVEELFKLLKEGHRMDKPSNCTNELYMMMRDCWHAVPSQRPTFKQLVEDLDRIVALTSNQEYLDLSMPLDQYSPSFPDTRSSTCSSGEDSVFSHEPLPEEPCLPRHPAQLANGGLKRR

[6] = target: T1, human beta klotho / human FGFR1c …; assay: cell-based or functional assay; remark: listed apart in the source
[7] = target: T3, human beta klotho protein (soluble, used in Biacore) (human, UniProt Q86Z14 53-997, limits assumed); assay: Biacore SPR (as in Example 2)
T3 construct: also called HuKLB; huKLB
T3 sequence: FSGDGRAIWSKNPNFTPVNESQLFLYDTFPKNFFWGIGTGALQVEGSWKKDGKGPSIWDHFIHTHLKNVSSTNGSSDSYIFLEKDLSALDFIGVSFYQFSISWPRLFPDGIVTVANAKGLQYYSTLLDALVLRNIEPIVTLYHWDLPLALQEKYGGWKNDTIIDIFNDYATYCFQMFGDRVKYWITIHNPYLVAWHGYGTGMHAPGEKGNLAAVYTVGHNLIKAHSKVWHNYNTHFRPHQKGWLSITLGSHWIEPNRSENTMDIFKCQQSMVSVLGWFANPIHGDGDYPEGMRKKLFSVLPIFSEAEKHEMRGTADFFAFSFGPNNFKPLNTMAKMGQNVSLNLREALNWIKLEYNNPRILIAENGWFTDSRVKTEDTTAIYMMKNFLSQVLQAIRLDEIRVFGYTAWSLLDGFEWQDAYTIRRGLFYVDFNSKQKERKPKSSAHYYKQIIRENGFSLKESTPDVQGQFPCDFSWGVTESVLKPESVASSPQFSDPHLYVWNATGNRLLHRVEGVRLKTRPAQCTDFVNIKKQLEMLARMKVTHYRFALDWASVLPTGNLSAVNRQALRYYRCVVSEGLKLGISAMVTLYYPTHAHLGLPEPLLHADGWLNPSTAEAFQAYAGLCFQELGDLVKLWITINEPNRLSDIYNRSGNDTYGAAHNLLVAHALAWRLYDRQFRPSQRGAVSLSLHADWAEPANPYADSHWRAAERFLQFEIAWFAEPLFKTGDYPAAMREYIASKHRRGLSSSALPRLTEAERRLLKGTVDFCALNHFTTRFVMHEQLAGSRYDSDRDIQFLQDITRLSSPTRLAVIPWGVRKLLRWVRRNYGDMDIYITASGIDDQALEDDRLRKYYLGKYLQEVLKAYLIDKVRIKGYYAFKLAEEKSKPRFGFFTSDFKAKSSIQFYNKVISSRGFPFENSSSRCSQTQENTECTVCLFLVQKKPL

[8] = target: T4, cynomolgus monkey beta klotho protein (soluble, used in Biacore) (cynomolgus monkey (Macaca fascicularis), UniProt Q86Z14 53-996 (human entry), limits assumed); assay: Biacore SPR (as in Example 2)
T4 construct: Protein in solution; also called Cyno KLB; cyKLB
T4 chain: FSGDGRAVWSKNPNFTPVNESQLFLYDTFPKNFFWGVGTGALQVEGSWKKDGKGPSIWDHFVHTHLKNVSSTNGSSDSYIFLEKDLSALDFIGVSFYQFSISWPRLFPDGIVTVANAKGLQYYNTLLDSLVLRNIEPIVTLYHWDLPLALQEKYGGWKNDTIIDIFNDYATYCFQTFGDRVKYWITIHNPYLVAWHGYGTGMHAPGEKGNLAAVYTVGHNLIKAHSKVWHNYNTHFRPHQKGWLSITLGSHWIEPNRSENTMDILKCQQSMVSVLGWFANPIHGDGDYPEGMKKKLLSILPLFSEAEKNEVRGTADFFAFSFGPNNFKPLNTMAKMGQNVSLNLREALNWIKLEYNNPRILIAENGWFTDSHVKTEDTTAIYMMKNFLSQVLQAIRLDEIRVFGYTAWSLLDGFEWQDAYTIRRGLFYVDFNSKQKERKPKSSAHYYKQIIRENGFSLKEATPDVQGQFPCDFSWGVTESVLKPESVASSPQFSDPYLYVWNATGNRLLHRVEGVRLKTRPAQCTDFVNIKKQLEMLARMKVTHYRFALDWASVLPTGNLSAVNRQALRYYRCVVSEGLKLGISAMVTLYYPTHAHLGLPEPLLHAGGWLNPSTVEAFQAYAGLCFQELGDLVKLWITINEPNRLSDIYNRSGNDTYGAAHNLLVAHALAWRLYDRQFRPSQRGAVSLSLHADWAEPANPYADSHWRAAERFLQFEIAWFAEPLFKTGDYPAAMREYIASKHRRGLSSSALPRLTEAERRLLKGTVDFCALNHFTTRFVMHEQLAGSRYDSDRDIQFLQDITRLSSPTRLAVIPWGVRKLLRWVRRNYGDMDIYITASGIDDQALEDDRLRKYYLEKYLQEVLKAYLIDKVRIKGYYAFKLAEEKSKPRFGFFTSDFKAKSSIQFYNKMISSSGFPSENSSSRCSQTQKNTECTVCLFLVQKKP

B1: antibody 1G19 (antibody, V domains shown)
VH: QVQLQESGPGLVKPSQSLSLTCSVTGYSITSGYYWNWIRQFPGNKLEWMGYINYGGSNNYNPSLKNRISITRDTSKNQFFLKLTSVTTEDTATYYCARRGAYYSNYDSFDVWGTGTTVTVSS
VL: DIKMTQSPSSMYASLGERVTITCKASQDINSYLSWFQQKPGKSPKTLIYRANRLVDGVPSRFSGSGSGQDYSLTISSLEYEEMGIYYCLQYDEFPYTFGGGTKLEIK
notes: Murine monoclonal antibody
[1]
  HEK293 huKLB/R1c reporter assay EC50, Experiment - A: 231 pM
  HEK293 huKLB/R1c reporter assay EC50, Experiment - B: 127 pM
[2]
  Mean Florescence Intensity (MFI): 2.2 MFI
[3]
  Mean Florescence Intensity (MFI): 29 MFI
[4]
  hAdip pERK assay EC50, Experiment - B: 1.3 nM
[5]
  HEK293 cynoKLB/R1c reporter assay EC50, Experiment - A: 2350 pM
  HEK293 cynoKLB/R1c reporter assay EC50, Experiment - B: 2450 pM

B2: humanized 5H23 antibody vH3-vL2 (antibody, human IgG1, kappa, V domains shown)
VH: QVQLQQSGAEVKKPGASVKVSCKASGYTFTSYDINWVRQAPGQGLEWIGWIYPGDGSTKYNEKFKGKATITRDTSASTAYMELSSLRSEDTAVYFCARSDYYGSRSFAYWGQGTLVTVSS
VL: DIVMTQSPDSLAVSLGERATINCRASKSVSTSGYVYMHWYQQKPGQPPKLLIYLASYLESGVPDRFSGSGSGTDFTLTISSVQAEDVAVYYCQHSRDLTFPFGGGTKLEIKR
notes: Probably the same antibody as m13; also called vH3 (vL2 group)
[6]
  EC50-adipocyte: 5.5 nM
  EC50 reporter assay: 0.68 nM
[7]
  Kd: 0.23 nM
[8]
  Kd: 0.59 nM

From patent US20210030857A1 (NGM BIOPHARMACEUTICALS, published 2021)
